Source: the supplement of paper PMC7877785
± gives the uncertainty stated by the source.

Test: self-splicing fitness, log relative to wild type (ln ratio); higher = more splicing; Tetrahymena group I intron in knt gene, E. coli kanamycin selection, DiMSum; sequences stand for … in CUCUCU…GGAGGGAAAAGUUAUCAGGCAUGCACCUGGUAGCUAGUCUUUAAACCAAUAGAUUGCAUCGGUUUAAAAGGCAAGACCGUCAAAUUGCGGGAAAGGGGUCAACAGCCGUUCAGUACCAAGUCUCAGGGGAAACUUUGAGAUGGCCUUGCAAAGGGUAUGGUAAUAAGCUGACGGACAUGGUCCUAACCACGCAGCCAAGUCCUAAGUCAACAGAUCUUCUGUUGAUAUGGAUGCAGUUCACAGACUAAAUGUCGGUCGGGGAAGAUGUAUUCUUCUCAUAAGAUAUAGUCGGACCUCUCCUUAAUGGGAGCUAGCGGAUGAAGUGAUGCAACACUGGAGCCGCUGGGAACUAAUUUGUAUGCGAAAGUAUAUUGAUUAGUUUUGGAGUACUCGUGGUCG
How it was run: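 Fitness was computed with DiMSum as the error-weighted combination of replicate fold changes, kanamycin versus none, each normalised to wild type. The library randomised all eight intron nucleotides of the P1ex region, with the intron placed in the knt kanamycin-resistance gene on pET-22b(+) in E. coli BL21(DE3). Six replicate transformations were grown overnight at 37°C or 30°C on LB agar with or without 25 μg/mL kanamycin, plus 100 μg/mL carbenicillin, 50 μM IPTG and 0.2% rhamnose. Pooled colonies were amplicon-sequenced on an Illumina HiSeq 2500.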

Sequence	self-splicing fitness (ln) (30 °C)	self-splicing fitness (ln) (37 °C)
ACGAAGCAAUAUUACGCCAC	-3.08 ± 0.19	-2.56 ± 0.28
AGUUAGCAAUAUUACGUAUC	-3.63 ± 0.2	-2.25 ± 0.18
UGCUAGCAAUAUUACGCACG	-1.27 ± 0.12	-1.18 ± 0.16
AAGUAGCAAUAUUACGCGGG	-2.89 ± 0.19	-2.84 ± 0.2
CCGAAGCAAUAUUACGGCUC	-3.57 ± 0.32	-2.81 ± 0.35
AAGAAGCAAUAUUACGAUGC	-2.61 ± 0.13	-1.76 ± 0.17
ACUAAGCAAUAUUACGCCCC	-0.566 ± 0.13	0.127 ± 0.17
GACCAGCAAUAUUACGCGCC	-0.0376 ± 0.14	-0.617 ± 0.18
AAAUAGCAAUAUUACGUGGA	-3.16 ± 0.13	-2.11 ± 0.099
GCCAAGCAAUAUUACGGGGU	-4.5 ± 0.18	-2.55 ± 0.14
GGUUAGCAAUAUUACGUCAC	–	-1.82 ± 0.23
GACAAGCAAUAUUACGCGAU	-2.96 ± 0.13	-1.02 ± 0.099
CUUGAGCAAUAUUACGUGAG	-2.89 ± 0.12	-1.28 ± 0.12
CGCGAGCAAUAUUACGGGGA	-1.94 ± 0.28	-2.41 ± 0.29
AACAAGCAAUAUUACGCCCU	0.18 ± 0.062	0.0436 ± 0.08
AUCUAGCAAUAUUACGGGAA	-0.643 ± 0.13	-0.903 ± 0.14
AUGUAGCAAUAUUACGCCAG	-3.46 ± 0.31	-1.05 ± 0.31
GCAGAGCAAUAUUACGAUGA	-1.42 ± 0.14	-1.07 ± 0.12
AGGUAGCAAUAUUACGAAAC	-3.37 ± 0.035	-1.85 ± 0.042
ACAGAGCAAUAUUACGGCAG	-2.25 ± 0.14	-2.45 ± 0.22
UUUAAGCAAUAUUACGCUAG	-1.54 ± 0.15	-0.671 ± 0.2
UACAAGCAAUAUUACGAUCU	-0.941 ± 0.075	-0.61 ± 0.077
AUAGAGCAAUAUUACGUCCC	-2.36 ± 0.48	–
AUAAAGCAAUAUUACGCUUU	-4.03 ± 0.24	-1.59 ± 0.23
CUACAGCAAUAUUACGGGAA	-2.88 ± 0.24	-2.28 ± 0.23

Sequence	self-splicing fitness (ln) (30 °C)	self-splicing fitness (ln) (37 °C)
GUGUAGCAAUAUUACGCCUG	-3.94 ± 0.25	-0.863 ± 0.13
CCGAAGCAAUAUUACGUCUC	-3.9 ± 0.28	-3.47 ± 0.2
UCCGAGCAAUAUUACGAGUU	-2.64 ± 0.2	–
UAAGAGCAAUAUUACGUAAG	-3.02 ± 0.2	-2.1 ± 0.21
UCGUAGCAAUAUUACGGGAC	–	-2.5 ± 0.44
AAACAGCAAUAUUACGUACG	-2.54 ± 0.11	-0.985 ± 0.11
UAAUAGCAAUAUUACGUCAU	-4 ± 0.28	-2.52 ± 0.22
CUUAAGCAAUAUUACGACGA	-3.58 ± 0.25	-2.61 ± 0.23
AUCUAGCAAUAUUACGCGGG	-3.32 ± 0.26	-2.12 ± 0.23
AUCUAGCAAUAUUACGGAAC	-4.03 ± 0.37	-1.75 ± 0.24
AGCUAGCAAUAUUACGGUUG	-1.95 ± 0.075	-1.37 ± 0.11
CACGAGCAAUAUUACGCGGC	–	-1.38 ± 0.22
CAUCAGCAAUAUUACGAGUC	-4.85 ± 0.34	-1.6 ± 0.21
CUGUAGCAAUAUUACGACUA	-1.74 ± 0.42	-0.817 ± 0.3
GGGAAGCAAUAUUACGUGGC	-2.16 ± 0.36	-2.73 ± 0.31
UAUAAGCAAUAUUACGGACC	-2.68 ± 0.16	-2.07 ± 0.22
ACCGAGCAAUAUUACGGAUG	-2.12 ± 0.12	-1.85 ± 0.098
UUACAGCAAUAUUACGCAUC	-3.36 ± 0.15	-1.6 ± 0.13
CACGAGCAAUAUUACGGUUG	-3.57 ± 0.15	-1.6 ± 0.12
UCUUAGCAAUAUUACGGAUC	–	-1.69 ± 0.36
AUCCAGCAAUAUUACGCUAA	-0.717 ± 0.093	-1.13 ± 0.077
UAAAAGCAAUAUUACGGAGG	-2.7 ± 0.17	-2.07 ± 0.16
GUUCAGCAAUAUUACGAGCG	-2.03 ± 0.13	-1.31 ± 0.15
UAGAAGCAAUAUUACGCAAU	-2.51 ± 0.16	-1.04 ± 0.24
CGCUAGCAAUAUUACGGUAG	-2.52 ± 0.11	-2 ± 0.13

Sequence	self-splicing fitness (ln) (30 °C)	self-splicing fitness (ln) (37 °C)
UGGCAGCAAUAUUACGAUGU	-4.09 ± 0.3	-1.67 ± 0.34
CGCCAGCAAUAUUACGGAGG	-3.32 ± 0.18	-0.355 ± 0.12
GAACAGCAAUAUUACGCACU	0.254 ± 0.079	0.0329 ± 0.11
UGCUAGCAAUAUUACGGCAU	-3.65 ± 0.28	-2.37 ± 0.31
UUUGAGCAAUAUUACGGUCC	-3.88 ± 0.28	-1.8 ± 0.23
AGGUAGCAAUAUUACGCAUA	-1.71 ± 0.019	-0.787 ± 0.034
AUAGAGCAAUAUUACGUUAG	-1.39 ± 0.11	-1.21 ± 0.16
CAGCAGCAAUAUUACGUCAA	-2.85 ± 0.21	-3.37 ± 0.3
UCCCAGCAAUAUUACGUUCU	-3.47 ± 0.21	-2.5 ± 0.22
CUAUAGCAAUAUUACGACCA	-3.1 ± 0.29	-2.44 ± 0.35
UCCUAGCAAUAUUACGGUGC	-2.74 ± 0.17	-2.36 ± 0.18
GUGAAGCAAUAUUACGGUUU	-2.86 ± 0.084	-0.906 ± 0.11
GUUAAGCAAUAUUACGGGAG	-3.17 ± 0.14	-1.63 ± 0.097
CAAAAGCAAUAUUACGAGAU	-3.7 ± 0.2	-2.21 ± 0.16
AAACAGCAAUAUUACGCGCC	-1.13 ± 0.1	-0.456 ± 0.12
GAUAAGCAAUAUUACGGUCG	-0.842 ± 0.1	0.117 ± 0.13
GCCAAGCAAUAUUACGAAUA	-2.96 ± 0.17	-2.72 ± 0.18
GUGUAGCAAUAUUACGCUUA	-1.45 ± 0.29	0.408 ± 0.25
UACCAGCAAUAUUACGUAAA	-0.982 ± 0.071	-0.408 ± 0.097
AGCCAGCAAUAUUACGAGGC	-3.6 ± 0.2	-2.02 ± 0.19
CCUGAGCAAUAUUACGCGCU	-4.19 ± 0.39	-2.1 ± 0.24
GGGGAGCAAUAUUACGUGUU	-3.92 ± 0.35	-2.29 ± 0.27
UCCAAGCAAUAUUACGUACA	-0.123 ± 0.1	-0.835 ± 0.12
GCCUAGCAAUAUUACGUCUC	-0.71 ± 0.064	-0.518 ± 0.086
AUAUAGCAAUAUUACGGAAC	-2.89 ± 0.41	–

Sequence	self-splicing fitness (ln) (30 °C)	self-splicing fitness (ln) (37 °C)
AAUCAGCAAUAUUACGGGCU	-2.04 ± 0.081	-1.22 ± 0.094
CCGAAGCAAUAUUACGCUUG	-3.79 ± 0.33	-2.26 ± 0.22
UUCUAGCAAUAUUACGCUAU	-4.08 ± 0.29	-1.42 ± 0.15
CAUGAGCAAUAUUACGUGGU	-3.53 ± 0.18	-2.49 ± 0.16
CAAUAGCAAUAUUACGGUGA	-2.83 ± 0.23	-2.09 ± 0.21
AAAGAGCAAUAUUACGAAUA	-1.42 ± 0.35	–
CCUCAGCAAUAUUACGUAUG	-1.75 ± 0.075	-0.495 ± 0.079
GCAUAGCAAUAUUACGGUAG	-3.52 ± 0.26	-3.01 ± 0.3
GUUUAGCAAUAUUACGUAGA	-2.37 ± 0.15	-0.622 ± 0.2
UCCUAGCAAUAUUACGAGCU	-3.57 ± 0.37	-1.99 ± 0.38
CGGAAGCAAUAUUACGGUAA	-3.11 ± 0.23	-2.23 ± 0.24
AGAGAGCAAUAUUACGCAUA	-3.84 ± 0.39	-2.96 ± 0.47
UUCAAGCAAUAUUACGUAUU	-3.82 ± 0.17	-2.66 ± 0.16
GCUAAGCAAUAUUACGUCUU	-1.18 ± 0.13	0.136 ± 0.13
UUGAAGCAAUAUUACGGUUA	-0.344 ± 0.066	0.471 ± 0.086
UGUGAGCAAUAUUACGAUCU	-1.57 ± 0.15	-0.175 ± 0.14
UAGUAGCAAUAUUACGCUAA	-2.12 ± 0.28	-1.3 ± 0.15
GCACAGCAAUAUUACGCGUG	-3.87 ± 0.2	-2.35 ± 0.18
AUGUAGCAAUAUUACGCGAU	-2.09 ± 0.2	-2.55 ± 0.24
UUGUAGCAAUAUUACGGAUC	-3.53 ± 0.3	-2.48 ± 0.26
CUACAGCAAUAUUACGGUCG	-0.256 ± 0.068	0.417 ± 0.082
AAUUAGCAAUAUUACGAAGG	-2.79 ± 0.23	-1.88 ± 0.35
